Data published in the DeepSol protein solubility set.

Assay: soluble on expression in E. coli; label from the status in PepcDB or PDB records

Row | Sequence | soluble on expression in E. coli
1 | MAFIGRDDDLKQLQECFTERRAQLVFVYGRRRVGKTETLIQLAKDKETLFFAAQNATKDEQLASFSRLMFEAGAPGKDYLSQYPSWERALTELTRLPEPSDGGRRLVIFDEFPYLVKSDPSLPSVLQNLWDHTLRHANLMIVICGSAMSFIEKELLGEKSPLYGRATGILKMLPMPYWDAAQFFPNYSGEDKALAYAILGGIPRYLEEFDPDETIDANVKRHILRRIAPLYSEVEFLLHEELRETAKYNSVIRAIALGATSLNEIATHTMMANATVSSYLANLMELGIVEREFPVTAKPKERAKGSRGLYQLSDNFFRFWYSFVFPYRSELERGDVEGVYERHIKPVLHDFAGKPFEGLCREWMWRESAAGRLPFRARAVGRWWDRQDEIDVMAVDNASDAAIVGECKFRNAPVDRSVLNLLRDRAARTGIGQRTYLLFSLGGFDQSLVDDAAASQSDVQLVGIDELFHELEHHHHHH | not soluble
2 | MSLCGISGLVQLEGVADTSAMRRSVETMVKALAHRGPDDSGVAGDGSAVFGMARLAIRGCHDGRQPMVDAETGVMMVCNGEIDNHAELRGWLAERGRAVEHATDVAVIPGLYLELGDGFVERLVGAFALAVWDPRRGRLLLARDRAGERPLFYACRDGRVSFASQAAALVAGSPEPYPADEAAVQAFLKAGYFEAPASPFAGMRKVLPGERIAIDVKGVERSRYWRLNFTRGPARKNPLDEFDAVFREAVRRQSEVEVDFGAFLSGGVDSSLVTAVMRSVHPDRKLKAFGLRFSESSYDEGVFAERVAESLGVDYTPIWVRPEDFPETLADLVRQSGEPLADPAWVPTALLARRASDEVRVALVGEGADELFGGYPTYFGARLAERYSRLPGGLRALIRKAVEAWPVSDKKVTVSFLLKRFVQGDELDFLARHVLWTSSIPPALLRRLGVTPPETPHVAGPQETMLDRLQQHDLETSLAEGLLTKADRASMRSALELRAPFLDKDVIEFAATLPERERVQGLETKVFLKRVALRYLPKDIVYRKKRGLSVPLSAWLRGPLHDWAEARISSPRLEELGINRAAALELLREHERRSADHARALWTLIVVSEWLEWKAGMEAHEGHHHHHH | soluble
3 | MASPELAEKLKKRLDGTDQEPETNPHQAPPPAPVIPQKIVENPYIPSVDTSIDDLIFKALEKKEENNNNNNNNNSNSTTTTPLEIKTERNQQHEHTTIDPRSPPPKRSILELLEQERLENELQQQSAPVPKTPVMVITKGAFPRSASPRRQQFVRENEDGNELEKRLAAQRMKKYTEEMESLVQKQVDVLDQIMSSPPPPPTSPPQLPPTPPARITSVRSDESIEEEERRRKESEETASFEELEAEIMRISRSPVPPPVLSIPPPPPPNIPLPTIPQEVQSPPSPRPTSVPPPIPSPGPSEDVNMDELIESFSDSVIFNNSMSPPPPLPPLRESSLETLEVTPEDPVTESKVEASPTPLPKATESLNESSIKALEGLEVKALEAQEASDDRPSAPTPIRDSSLPPPPPPKPETPLAIRRAGPIPTPQLLEMIHQEDCSIRPSSPTSVSHGSRPQSPAVPKKPSVTVSPLGLLCDPNLSIEKPEEMKTEDTKPVETAPAPVDEAELNDALDRRNKINEATCLTKIFPSLARMFR | not soluble
4 | MIPDQRRELMLRQLRKHQVLSVHQLMEMFDCSHMTIRRDIAQLEQEGRAYSVTGGVRIASQVHSEPSHQSKAVVELPHKQGMARLAAGLLHPDMTIYLDAGTSTLEIVPHIIALSGMTVVTNDFGVVNALADAAHVDVIHTGGLLDHPNRSSVGGLAAATLRQLATDVAFMSTSSWDLQRGTTTPSALKVEVKQAAMQSASQTVLVATSSKYGTFGMYKVAGLDQFDTIISDAALAEAAADGIRKQRIELLLAPVGGRSKLEHHHHHH | not soluble
5 | MSDVENASLPPAIFIMGPTASGKTALAMTLREYLPVELISVDSALIYKDMDIGTAKPSADELARAPHRLIDILDPTESYSAADFRRDALREMADITAAGRIPLLVGGTMLYFKALLEGLSPLPPADAAVRQRIEEQAKEIGWEAMHRQLSEIDPTAAIRIHPNDPQRLSRALEVFFISGNTLTELTKTSGDALPYQVHQFAIAPAMRELLHQRIEQRFHQMLAAGFETEARALFARHDLHTDMPSIRCVGYRQMWSYLSGEIDYDEMVYRGVCATRQLAKRQMTWLRGWDDVCWLDSENPTEALDKVIQVVSALEHHHHHH | soluble
